Laboratory results: PMC11663931

Experiments:
[1] = target: human recombinant RetGC1 (retinal membrane guanylyl cyclase 1) (human) (UniProt Q02846)
[2] = target: human recombinant RetGC1 (retinal membrane guanylyl cyclase 1) (human) (UniProt Q02846); remark: listed apart in the source

Sequence of UniProt Q02846 (Q02846 52-1103): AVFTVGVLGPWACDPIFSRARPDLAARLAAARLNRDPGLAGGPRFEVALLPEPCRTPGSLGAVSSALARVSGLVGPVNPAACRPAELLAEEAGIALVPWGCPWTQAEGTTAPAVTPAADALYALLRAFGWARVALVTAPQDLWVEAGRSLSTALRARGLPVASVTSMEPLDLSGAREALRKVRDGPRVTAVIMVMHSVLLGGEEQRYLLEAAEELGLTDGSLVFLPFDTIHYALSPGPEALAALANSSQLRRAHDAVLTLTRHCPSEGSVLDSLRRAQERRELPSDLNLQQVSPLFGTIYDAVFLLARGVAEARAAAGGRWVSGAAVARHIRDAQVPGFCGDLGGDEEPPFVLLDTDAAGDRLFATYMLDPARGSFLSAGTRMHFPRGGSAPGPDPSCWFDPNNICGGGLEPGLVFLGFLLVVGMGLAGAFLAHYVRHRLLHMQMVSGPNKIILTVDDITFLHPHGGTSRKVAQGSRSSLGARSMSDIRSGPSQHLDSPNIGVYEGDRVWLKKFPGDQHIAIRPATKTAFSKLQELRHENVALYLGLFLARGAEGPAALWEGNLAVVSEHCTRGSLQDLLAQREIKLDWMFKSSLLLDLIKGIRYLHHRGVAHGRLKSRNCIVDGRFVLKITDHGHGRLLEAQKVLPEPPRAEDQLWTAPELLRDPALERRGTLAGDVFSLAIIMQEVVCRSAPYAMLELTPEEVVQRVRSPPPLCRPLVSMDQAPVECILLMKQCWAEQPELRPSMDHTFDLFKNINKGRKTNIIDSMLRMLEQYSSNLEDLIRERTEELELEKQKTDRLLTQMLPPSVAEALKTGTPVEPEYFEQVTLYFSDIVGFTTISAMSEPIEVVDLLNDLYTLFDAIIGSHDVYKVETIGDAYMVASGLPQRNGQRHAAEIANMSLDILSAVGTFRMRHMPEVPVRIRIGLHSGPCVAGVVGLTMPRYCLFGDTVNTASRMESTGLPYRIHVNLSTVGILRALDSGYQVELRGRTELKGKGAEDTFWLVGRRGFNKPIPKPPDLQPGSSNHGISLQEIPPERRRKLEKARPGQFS

B1: purified myristoylated bovine GCAP1 (guanylyl cyclase activating protein 1) (natural protein)
chain: MGNIMDGKSVEELSSTECHQWYKKFMTECPSGQLTLYEFRQFFGLKNLSPWASQYVEQMFETFDFNKDGYIDFMEYVAALSLVLKGKVEQKLRWYFKLYDVDGNGCIDRDELLTIIRAIRAINPCSDSTMTAEEFTDTVFSKIDVNGDGELSLEEFMEGVQKDQMLLDTLTRSLDLTRIVRRLQNGEQDEEGASGRETEAAEADG
modifications: N-myristoylated
K1/2 of GCAP1 for activating the guanylyl cyclase activity of recombinant RetGC1, with additional 50 mM NaCl instead of bicarbonate (pilot measurement, not shown) [1]: 2 µM | K1/2 of GCAP1 for activating the guanylyl cyclase activity of recombinant RetGC1 in HEK293 membranes (hyperbolic fit, 0-10 μM GCAP1), with 50 mM NaHCO3 [2]: 2.9 µM | K1/2 of GCAP1 for activating the guanylyl cyclase activity of recombinant RetGC1 in HEK293 membranes (hyperbolic fit, 0-10 μM GCAP1), without NaHCO3 [2]: 1.47 µM
